# T1: GST-MEIOB construct A (Mus musculus, UniProt Q9D513 136-307)
# T1 sequence: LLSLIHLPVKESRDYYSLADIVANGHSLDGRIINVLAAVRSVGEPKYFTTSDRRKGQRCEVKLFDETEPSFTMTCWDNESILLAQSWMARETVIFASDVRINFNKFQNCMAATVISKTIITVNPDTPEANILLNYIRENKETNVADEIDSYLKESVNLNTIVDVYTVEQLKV
# B1: 5' flap (30 nt) (dsDNA)
# DNA 1: GTGTGTGTGTGTGTGTGTGTGTGTGTGTGTGGACATCTTTGCCCACCTGCAGGTTCACCC
# DNA 2: GGGTGAACCTGCAGGTGGGCAAAGATGTCC
# B2: 3' flap (30 nt) (dsDNA)
# DNA 1: CGATAGTCGGATCCTCTAGACAGCTCCATGGTGTGTGTGTGTGTGTGTGTGTGTGTGTGT
# DNA 2: CATGGAGCTGTCTAGAGGATCCGACTATCG
# B3: dsDNA 36 bp (dsDNA)
# DNA 1: GTGTGTGTGTGTGTGTGTGTGTGTGTGTGTGTGTGT
# DNA 2: ACACACACACACACACACACACACACACACACACAC
# Key:
# GST-MEIOB construct A [1] = target: T1, GST-MEIOB construct A; assay: EMSA
# GST-MEIOB construct A [2] = target: T1, GST-MEIOB construct A; assay: EMSA; remark: listed apart in the source
Binder,binding result (GST-MEIOB construct A [1]),Kd (GST-MEIOB construct A [2]) [nM]
B1,binds,
B2,binds,
GTGTGTGTGTGTGTGTGTGTGTGTGTGTGTGTGTGT (ssDNA) [d36GT],,400
B3,no binding,
